Assays:
[1] = substrate: O=C(CO)[C@H](O)[C@@H](O)CO; experiment: purified protein; conditions: 50 mM Tris-HCl pH 7.0, 0.5 mM NADPH, sugar reduction
[2] = substrate: OC[C@@H](O)[C@H](O)[C@@H](O)CO; experiment: purified protein; conditions: 100 mM Tris-HCl pH 8.0, 1 mM NADP+, polyol oxidation

B1: LXR3 (Trichoderma reesei QM6a) (protein)
chain: KNGAFPHDNAAVPNVERVLPLFSLKGRTAIVSGAGAGIGLAVAQAFAEAGANVAIWYNSNKQAVTSAEDIAKTYGVKCKAYQVNVTSAEAVDKAITEIIKEFNGRLDVFVANSGITWTEGAFIDGSVESARNVMSVNVDGVMWCAKSAGAHFRRQKEEGTTIDGKPLDNFIAGSFIATASMSGSIVNVPQLQAVYNSSKAAVIHFCKSLAVEWTGFARVNTVSPGYIITEISNFVPPETKTLWKDKIVMGREGRVGELKGAYLYLASDASSYTTGLDMIVDGGYSLP
kcat [1]: 11.4 s⁻¹
kcat [2]: 1 s⁻¹
